{"source": "patent US11407822B2", "about": "“Treatment of fibrodysplasia ossificans progressiva” (REGENERON PHARMACEUTICALS, INC., priority 2014, dated 2022)", "origin": "cited, not measured here", "molecules": {"B1": {"name": "H4H10430P: Antibody against Activin A designated H4H10430P in US2015037339; heavy and light chain variable regions present SEQ ID NOs:9 and 13 (antibody, V domains shown)", "VH": "EVQLVESGGGLVQPGRSLRLSCKASGFAFDDFAMHWVRQAPGKGLEWVSGIVWNSGDIGYADSVKGRFTISRDNAKNSLYLQLNSLRTEDTALYFCVKDMVRGLMGFNYYGMDVWGQGTTVTVSS", "VL": "EIVLTQSPATLSLSPGERATLSCRASQTISTYLVWYRQRPGQAPSLLIYDASNRATDIPARFSGSGSGTDFTLTISSLEPEDFAVYYCQQRSNWPITFGQGTRLEIK"}}, "key": {"[1]": {"system": "Activin A mediated signaling through ACVR2A and/or ACVR2B", "conditions": "as described for the antibody in US2015/0037339 or U.S. Pat. No. 8,309,082"}, "[2]": {"molecular_target": "T1, Activin A binding to ACVR2A or ACVR2B (Homo sapiens, UniProt P08476)", "T1 sequence (P08476 311-426)": "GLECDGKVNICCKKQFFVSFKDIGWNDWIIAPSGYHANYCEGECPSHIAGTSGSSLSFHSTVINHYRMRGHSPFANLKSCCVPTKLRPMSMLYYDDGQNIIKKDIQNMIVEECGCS", "conditions": "as described for the antibody in US2015/0037339 or U.S. Pat. No. 8,309,082"}}}
{"molecule": "B1", "values": [{"measurement": "inhibition of Activin A signal transduction through ACVR2A and/or ACVR2B", "setting": "[1]", "result": "inhibits signal transduction through one or both of these receptors"}, {"measurement": "inhibition of Activin A binding to ACVR2A and/or ACVR2B", "setting": "[2]", "result": "inhibits binding of Activin A to ACVRV2A and/or ACVR2B"}]}
